The test system of series [1] is Pseudomonas aeruginosa aggregate biofilms. The following applies: previous experiments, succinate-minimal medium, 27 hours; cited from earlier work.
A short description of series [2]: Continuous spectrophotometric PYO demethylation assay (specific activity and kinetics of PodA). It counts as biochemical. Here is the method:
Specific activity and kinetics of PodA. To determine specific activity and kinetic parameters of PodA for PYO, a continuous spectrophotometric assay monitoring the absorbance of PYO (690 nm) was utilized. Briefly, assays were performed at 25° C. in 100 μL reaction volumes in 96-well plates and reactions were monitored at 690 nm over 10 min. Reaction mixtures contained Phosphate buffer (50 mM, pH 6.0), ethylene glycol (1%, v/v), protein (3 μM) and substrate (for specific activity, 100 μM, for kinetics, varying). Data were acquired using the SpectraMax® M3 Microplate Reader (Molecular Devices) using the Soft Max Pro software every 10 s over 10 min. Path lengths for each well were calculated using Soft Max Pro endpoint readings and slopes were corrected for path lengths of 1 cm.
Specific activity was calculated from the slope of the linear range of (ΔOD690 min^−1) using Beer's Law (A=εcl) with a path length of 1 cm and the molar extinction coefficient of PYO (4,130 M^−1 cm^−1). Equation was solved for c, giving specific activity in nmol min^−1 mg^−1 of PodA. For kinetic parameters, graphs of initial velocity (μM s^−1) versus substrate concentration (μM) were plotted using Prism v8 (GraphPad). The Michaelis-Menten kinetics model was used to determine Km and Vmax. The turnover number (kcat) was determined using the following equation: Vmax=kcat[E], where [E] was the concentration of PodA added. All spectrophotometric assays mentioned above were completed thrice, each in technical triplicate with a representative data set shown. Error bars represent standard deviation as calculated by Prism v8 (GraphPad). Standard deviation for kcat and Kcat KM^−1 was calculated using standard formulas for propagation of error.

Series [3] in a line: Protein yield of PodA variants purified from inclusion bodies of overexpression culture. Here is the method: Protein overproduction and purification of soluble and inclusion body fractions. Plasmids coding for proteins of interest were transformed into E. coli BL21 […]. […]. Cultures were grown at 37° C. with shaking to an optical density of 0.4 (OD600 nm) and plasmid expression was induced with IPTG (50 μM) and shaken overnight at 16° C. Cells were harvested by centrifugation at 5,000×g for 10 min in a Beckman Coulter Avanti J-20 XOI refrigerated centrifuge using a JLA-8.1000 rotor at 4° C. Cell pellets were stored at −80° C. until used.
For purification of PodA from inclusion bodies, the pellets remaining following lysis and centrifugation at 40,000×g were resuspended in 20 mL of detergent buffer [50 mM HEPES (pH 7.5) and 1% Triton-X (v/v)] using a Bio-gen PRO200 cell homogenizer (PRO Scientific). Sample was spun for 15 min at 40,000×g at 4° C. in a Beckman Coulter Avanti centrifuge with a JA-25.50 rotor. Supernatant was discarded and the remaining cell pellet was resuspended in 5 mL of buffer [50 mM HEPES (pH 7.5), 500 mM NaCl] using a cell homogenizer, supplemented with lysozyme (200 μg mL^−1), and incubated for 10 min. Volume was increased to 20 mL with HEPES (50 mM, pH 7) and sample was spun for 40,000×g at 4° C. for 15 min. Supernatant was discarded and pellet was homogenized in 10 mL of denaturing buffer 50 mM HEPES (pH 7.5), 500 mM NaCl, and 8M urea) and incubating rocking overnight. The sample was spun at for 40,000×g at 25° C. for 30 min and supernatant was incubated with 1 mL HisPur Ni-NTA resin (Thermo Fisher Scientific) on a rocking platform for 10 min. Beads were allowed to settle without shaking, supernatant was discarded, and resin was pipetted into glass gravity columns. Resin was washed with 15 mL of denaturing buffer, followed by an elution with denaturing buffer supplemented with imidazole (500 mM). Fractions were analyzed by SDS-PAGE and those containing protein were combined into SnakeSkin 3.5 K MWCO dialysis tubing (Thermo Fisher Scientific). Urea was slowly dialyzed out in HEPES (50 mM, pH 7.5) and NaCl (500 mM) by lowing urea concentrations by 1 M increments. Each step was dialyzed at RT for 30 min. Protein was dialyzed in HEPES (50 mM, pH 7.5), NaCl (500 mM), and imidazole (20 mM) overnight at 4° C. The following day, protein was cleaved for 3 h at 25° C. with TEV protease (1:50 mg:mg ratio of TEV to PodA). The sample was applied to a HisPur gravity column and cleaved protein in the flow thru was confirmed by SDS-PAGE. Cleaved PodA protein was then dialyzed for storage for 3 h at 4° C. in HEPES (50 mM pH 7.5), NaCl (250 mM) and finally in HEPES (50 mM, pH 7.5), NaCl (100 mM), and glycerol (20%, v/v). Protein concentration was established on a NanoDrop™ using the extinction coefficient and MW of each protein. Protein was drop frozen in LN2 and stored at −80° C. until use.

For a further series, the system named is Pseudomonas aeruginosa. Put plainly: Crystal violet biofilm assay. It counts as cell-based. The following applies: 24 h incubation, protein added from the beginning. Here is the method:
Crystal violet assay. Pseudomonas aeruginosa grown overnight in LB were inoculated (1.5%, v/v) and grown for 24 h at 37° C. in 96-well round bottom plates in minimal medium (100 μL) with arginine (40 mM) as the sole carbon source. PodA was added with cells simultaneously and was present during growth and biofilm development. Planktonic cells were removed and attached cells were quantified with crystal violet staining (125 μL. 0.1% w/v), followed by washes with water and de-staining with an acetic acid (30%, v/v) mixture in water. Crystal violet was measured using a SpectraMax® M3 Microplate Reader (Molecular Devices) at an absorbance of 550 nm. Details of procedure were published previously (28)[43].

Setting [4] is: pH 6, 1% ethylene glycol, PodA 3 μM, substrate PYO.

B1: WT PodA41-162: Truncated wild-type pyocyanin demethylase from Mycobacterium fortuitum (MFORT_14352) lacking N-terminal membrane helix, SEQ ID NO: 3 (protein)
chain: VTMTLDVKNDQVAKHDFGKPGMDVGDMDIFSDILSVDGKQVGYDGGACFFTNVTPDNPMTYCELTIHLDAGEIFARSLTPHTLAPFTMAITGGTGEYANSKGELTVSGVATPDEKYELKLTK
Consider B1, for which the “aggregate development in ABBA” value in series [1] was “smaller aggregates in anoxic regions of the agar”. Also, in series [2] (buffers pH 5.5-10.0, PodA 3 μM, PYO 100 μM), the “pH of optimal activity” value stood at 6. In addition, the “Effect of salts (NaCl and KCl) on activity” value in series [2] (cystic fibrosis sputum range, 66 mM Na+, 15 mM K+) was “did not inhibit or enhance”. Moreover, in series [2] (setting [4]), the Km (in general, the concentration of substrate that gives half-maximal velocity) turned out to be 372 µM; the catalytic efficiency is 4.74±0.24×10^2 M^−1 s^−1; the kcat (as a rule, the maximal rate divided by the concentration of active sites) amounted to 0.176 ± 0.003 s⁻¹. The “Effect of slight increase in viscosity (ethylene glycol or glycerol 1% v/v) on activity” value in series [2] (pH 6, PodA 3 μM, PYO 100 μM) is on record as “enhanced”. Further, in series [2] (protein from soluble fraction), the catalytic efficiency is recorded as 1.05±0.093×10^2 M^−1 s^−1. Besides, in series [2] (protein purified from inclusion bodies, denatured and refolded), the catalytic efficiency was 1.14±0.25×10^2 M^−1 s^−1. The protein yields in series [3] (per L of bacterial culture, typical) was approximately 0.3 mg/L. Further, in series [3] (purified from inclusion bodies, per L of E. coli overexpression culture), the Yield came to 0.33 mg/L^−1. The “biofilm attachment (crystal violet)” value with Pseudomonas aeruginosa is recorded as “biofilm attachment defect”.

The values above are taken from patent US12427188B2, “Pyocyanine demethylases and related phenazine degrading agents compositions, methods and systems for interfering with viability of bacteria” (priority 2020, dated 2025).
